# Assay results: the RNAGym collection of RNA variant scans (doi:10.1073/pnas.2313332121)
# Variants at the floor of the assay were thinned out.
# B1: TPR 5TU (parent)
# chain: GGAUCUUCUCGAUCUAACAAAAAAGACAAAUCUGCCACAAAGCUUGAGAGCAUCUUCGGAUGCAGAGGCGGCAGCCUUCGGUGGCGCGAUAGCGCCAACGUUCUCAACUAUGACACGCAAAACGCGUGCUCCGUUGAAUGGAGUUUAUCAUG
# Variants of: B1
# Assay: polymerase ribozyme fitness, log enrichment relative to wild type (log ratio); higher = more active; in vitro selection for triplet polymerase activity
# Summary of the method: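 Libraries of mutants in each subunit of a heterodimeric triplet polymerase ribozyme were generated by PCR and transcribed. In triplicate, each went through one in vitro selection round: annealing with biotinylated primer, partner subunit and triplets; frozen incubation at −7 °C; gel excision of extended constructs; streptavidin-bead capture; RT-PCR. Fitness, taken from Illumina sequencing of input and output libraries, is the logarithm of a genotype's enrichment over wild-type enrichment, averaged across replicates with inverse-variance weights. The logarithm is base 2, and genotypes needed ≥10 input reads and ≥1 read per output to be kept.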
row,Variant,polymerase ribozyme fitness (log ratio)
1,U13A A20G A28G G48A U146C,≤ -4.2
2,A12U G141C,-0.54
3,U13A G94C,-1.19
4,U13A C32U G67C C85A C105U G140A,≤ -4.2
5,U13C A29U A52C G86C A107C U109A,≤ -4.2
6,A12U U15C U56A G92A A150G,-1.16
7,A12U U55A G59U A60G G94A,-0.00322
8,A12U C54U G86C,-3.04
9,U13A G46U G59A A91G C95U G117A,≤ -4.2
10,A12U U56A,-0.683
11,U13C A120G U130A,-3.95
12,U13A A30U U33G G46A G86A A91U A119G,≤ -4.2
13,U13A A26U C76U U146A,-3.35
14,U13A G50A U55A A89C,-3.57
15,U13A U61A C85U,-2.01
16,A12U C87G,-4.2
17,A12U C87A,-4.15
18,U13A C18U U55A A119G,-1.83
19,A12U C105G,-2.43
20,U13C A16U,-0.079
21,U13C A21C,0.934
22,A12U G71A A107C,≤ -4.2
23,A12U U61G C93U G94A U144G,-2.83
24,U13A A16C A91G,-2.83

row,Variant,polymerase ribozyme fitness (log ratio)
1,A12U G42C U61A A106U C132U,≤ -4.2
2,A12U C87U A119U,-1.23
3,A12U U45A U55G A66G U78C G88U C95G A137U,≤ -4.2
4,A12U C54U U134A U145G,-3.56
5,U13A C14G A19U U53A U55A G86C U135A,≤ -4.2
6,A12U G94A,-1.47
7,A12U G59U C69A C96U,-2.45
8,A12U C51U,-2.53
9,U13A G84A G136U,-2.59
10,U13A A40U U55A C129A,≤ -4.2
11,U13C A91U A120U,-3.86
12,A12U U31C C32U A40U C57G A73G C75A G88A G152A,≤ -4.2
13,U13A G34U G94A U102G,≤ -4.2
14,A12U C87A U90C A113G C131U,≤ -4.2
15,A12U U15C A49C G88C C123U G143C,≤ -4.2
16,A12U U144G,0.918
17,U13A A29U U44A C72G C96U A97U,≤ -4.2
18,A12U C87A C103G U135G,≤ -4.2
19,A12U C87A A113U A115C U148A,≤ -4.2
20,U13A A41C A91U C96U,≤ -4.2
21,U13C C27A A49C U56A A97U,≤ -4.2
22,U13A C18G A30G G65U A91G A115C C118U U144G,≤ -4.2
23,A12U G58A,-0.217
24,U13C C27U A37G C54U A106G U109G C123G G124A,-3.57

row,Variant,polymerase ribozyme fitness (log ratio)
1,U13A U55A A89C G128U,-3.92
2,U13A A28U C36U G81C,≤ -4.2
3,U13C C18A A40C U53A G83A,-2.56
4,A12U C85A,-1.85
5,A12U C85G,-1.91
6,A12U C85U,-0.742
7,U13A U33A A52U A89G,≤ -4.2
8,U13C C14G C43G A91G A106U U109G A138G,-4.06
9,U13A G25U C85G,-3.79
10,U13A G48U U56A G84A,-1.28
11,U13A U55G C85U A121G,-1.11
12,A12U U56G A89G C93A A113G,-3.89
13,A12U G46A C75U C87A C99U G117A,≤ -4.2
14,U13A C76A U148G,≤ -4.2
15,U13C A49C A52U G71A A113U,≤ -4.2
16,A12U U55G A142C,-1.46
17,U13A C38U A60C G83C,≤ -4.2
18,U13C A17C G67C U77G A89C A120C,≤ -4.2
19,A12U U31G A40C A49C A60G C93U,≤ -4.2
20,A12U C54U G59C A60G U144G,-0.245
21,A12U C85U A97G C116U,-1.53
22,A12U U56A C93U A147G,-1.6
23,U13A C32G A37U A52G G94A G128A U146G,≤ -4.2
24,U13A G34U A49C G140A A142U,≤ -4.2

row,Variant,polymerase ribozyme fitness (log ratio)
1,U13A A52G G68C G80A U82G C95G C105U C114A U145G,≤ -4.2
2,A12U U82C G86C,≤ -4.2
3,U13C C27U G50C G92C,-4.02
4,U13A U135A,-0.229
5,U13C C14U C54A G92A,≤ -4.2
6,A12U G42C C51U C93U C123A G124U,≤ -4.2
7,U13A C69A A120C,-2.74
8,A12U C63A U78G C95U,≤ -4.2
9,U13A C18G,-0.831
10,U13C A30U C36G C51U U55A C87A G126U,≤ -4.2
11,U13C A16G A19C A28U C38U U55G A73C U77C C95G,≤ -4.2
12,A12U C54A C95U,-1.84
13,U13C A19C A89U C95U U146G A150U,-2.94
14,U13C C14U U77G G84U U145G U148A,≤ -4.2
15,U13A C85U U135A,-1.44
16,A12U G46C C69U,-3.08
17,A12U U53A U56A A66C A113C,≤ -4.2
18,U13C A40C G48C G50C G83U,≤ -4.2
19,U13A C57U A73C C96G,≤ -4.2
20,A12U C87U A97U,-0.917
21,A12U U55A C87U A119U U127C,-3.82
22,U13C A20C G50C,-3.15
23,U13A A20U A28C C93U G136C A137U,≤ -4.2
24,A12U G84U,-1.97

row,Variant,polymerase ribozyme fitness (log ratio)
1,A12U G84C,-2.67
2,A12U U56A A115G,-2.11
3,U13A A52G U82A,-0.721
4,U13A C85U A107U C125A G126C,≤ -4.2
5,A12U G92U,-1.64
6,A12U G92A,-1.81
7,U13C A39C U56A C95U G124A,-3.63
8,A12U G25U A37G A47C U77A C95G G141A,≤ -4.2
9,U13A A52G U56A C75U U78A C87U C93A G136C C149A,≤ -4.2
10,U13A G62A A142G,-2.22
11,U13A C93A,-3.28
12,U13A A52U A73G C85A U134G,≤ -4.2
13,U13A C14A A60G C93U,-2.5
14,U13C A22U A24U U53A A98U,-1.6
15,U13A C105A A107C U134A,≤ -4.2
16,U13C A26C A52C,-3.55
17,U13C A21C A23C G92U A142G A147U,≤ -4.2
18,A12U G42A C85U C99G,≤ -4.2
19,A12U C85A C96A,-2.97
20,A12U G50U C72U G126A,-1.33
21,U13C A24C U45G G84U U135C,≤ -4.2
22,A12U G143U,-3.14
23,U13A A21C A73G C85G A89U,-2.11
24,A12U C38U G83U,-0.788

row,Variant,polymerase ribozyme fitness (log ratio)
1,U13A A91G C114U A120G,-4.09
2,U13A A19U A37C U45A A49C C51U C76U G94A G133U U134A G140U U148A,≤ -4.2
3,U13A C38U G83C G140A,≤ -4.2
4,A12U C116G,-0.634
5,A12U G67U G84A A110U,≤ -4.2
6,A12U G81C G84A A115U,≤ -4.2
7,U13C A19G U45G C93A A106U,-2.34
8,A12U C57G G65A,-3.18
9,U13A C38U,-0.321
10,A12U G86A U101G,-0.714
11,A12U U82G,-1.49
12,U13A C36A G50A C79U C96A,≤ -4.2
13,U13A A20U U77A,≤ -4.2
14,A12U G80U G84C A97G U134C,≤ -4.2
15,U13C A16G C18A C35A C87U,≤ -4.2
16,U13C A37G G126C,-1.85
17,U13C C32A A49C,≤ -4.2
18,A12U C96U U144G,0.0703
19,A12U C38G G59U,-0.492
20,A12U U55G A60U G83C A137U G141U,≤ -4.2
21,A12U C36G G86A A110C U139A,-4.11
22,U13A A73G G84A,-0.387
23,U13A A39U C54G C79U G81U G94U U139C G140U,≤ -4.2
24,A12U G50A C85A G88A A121G,≤ -4.2

row,Variant,polymerase ribozyme fitness (log ratio)
1,A12U U102G,-3.28
2,A12U G58U G83A C93A,≤ -4.2
3,A12U C38G G50A A66C,≤ -4.2
4,U13A A30G A37C G68U,≤ -4.2
5,U13A C27A C54A U56A G65C G92C A97G U101G G140U,≤ -4.2
6,U13A C51U C54A G86U C116U A120G,≤ -4.2
7,A12U C76G C85U C103A G126C U145G,≤ -4.2
8,A12U G84C A142G,-3.93
9,A12U G92A A98G C125G G128U,≤ -4.2
10,U13A A22U U53A G62C A64U U90A A91C C103A A106G C108U G126C,≤ -4.2
11,U13A G58A C87U C105A C108U G124A U145A,≤ -4.2
12,U13C C14G A66G A73G C95U A110G,≤ -4.2
13,U13A C57G C96A,-1.81
14,A12U C85G C123U U127A,≤ -4.2
15,A12U G25C A47G U56A C93G C108G,≤ -4.2
16,A12U G59A C75G U127G,-4.12
17,A12U G48A C96A,-2.05
18,A12U C93U,-1.13
19,A12U C93A,-1.26
20,A12U U13A A52C C87A G94U U134A A138U,≤ -4.2
21,U13C A52G U102C C118G,-3.18
22,A12U U56G A91G,-2.61
23,A12U C85A U139G,-0.992
